These results are taken from publication PMC7251212.

This experiment concerns the target recombinant TdfH (Neisseria gonorrhoeae TonB-dependent transporter, NGO0952) (Neisseria gonorrhoeae). The experiment in a line: ITC; Nano ITC, 25°C, 1x PBS with 0.05% DDM; TdfH (300 μl, 20 μM) in the cell, CP sample (200 μM) in 20 injections of 2.5 μl; fitted with NanoAnalyze to a two-state (multisite) model, TKO to a single-site model. A general note: ITC needs no label: the signal is the heat of the interaction.

B1: human calprotectin (heterodimer of S100A8 and S100A9) (complex)
chain 1: MLTELEKALNSIIDVYHKYSLIKGNFHAVYRDDLKKLLETECPQYIRKKGADVWFKELDINTDGAVNFQEFLILVIKMGVAAHKKSHEESHKE
chain 2: KMSQLERNIETIINTFHQYSVKLGHPDTLNQGEFKELVRKDLQNFLKKENKNEKVIEHIMEDLDTNADKQLSFEEFIMLMARLTWASHEKMHEGDEGPGHHHKPGLGEGTP
Turning to B1, the KD, high-affinity interaction (two-state model) amounted to 0.004 µM and the KD, low-affinity interaction (two-state model) was found to be 35 µM.
